Experimental data as given in IntAct's records for PubMed 25416956.

B1: Lipopolysaccharide-induced tumor necrosis factor-alpha factor (Homo sapiens), Q99732 (parent)
chain: MSVPGPYQAATGPSSAPSAPPSYEETVAVNSYYPTPPAPMPGPTTGLVTGPDGKGMNPPSYYTQPAPIPNNNPITVQTVYVQHPITFLDRPIQMCCPSCNKMIVSQLSYNAGALTWLSCGSLCLLGCIAGCCFIPFCVDALQDVDHYCPNCRALLGTYKRL
B2: Lipopolysaccharide-induced tumor necrosis factor-alpha factor (Homo sapiens), Q99732 (parent)
chain: B1 chain
partner: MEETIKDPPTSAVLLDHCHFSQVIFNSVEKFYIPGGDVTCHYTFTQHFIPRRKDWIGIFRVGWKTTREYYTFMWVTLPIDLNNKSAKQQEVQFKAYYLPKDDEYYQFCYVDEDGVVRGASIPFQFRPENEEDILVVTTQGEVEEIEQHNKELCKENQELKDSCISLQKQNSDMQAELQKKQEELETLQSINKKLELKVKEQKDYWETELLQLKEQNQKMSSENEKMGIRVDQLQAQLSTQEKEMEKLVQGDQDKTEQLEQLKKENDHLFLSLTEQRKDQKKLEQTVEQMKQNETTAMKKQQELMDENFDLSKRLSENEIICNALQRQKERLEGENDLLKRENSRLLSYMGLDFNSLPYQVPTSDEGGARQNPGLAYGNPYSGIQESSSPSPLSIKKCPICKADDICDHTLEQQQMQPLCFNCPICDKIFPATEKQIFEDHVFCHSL
B3: Plakophilin-2 (Homo sapiens), Q99959 (parent)
chain: MAAPGAPAEYGYIRTVLGQQILGQLDSSSLALPSEAKLKLAGSSGRGGQTVKSLRIQEQVQQTLARKGRSSVGNGNLHRTSSVPEYVYNLHLVENDFVGGRSPVPKTYDMLKAGTTATYEGRWGRGTAQYSSQKSVEERSLRHPLRRLEISPDSSPERAHYTHSDYQYSQRSQAGHTLHHQESRRAALLVPPRYARSEIVGVSRAGTTSRQRHFDTYHRQYQHGSVSDTVFDSIPANPALLTYPRPGTSRSMGNLLEKENYLTAGLTVGQVRPLVPLQPVTQNRASRSSWHQSSFHSTRTLREAGPSVAVDSSGRRAHLTVGQAAAGGSGNLLTERSTFTDSQLGNADMEMTLERAVSMLEADHMLPSRISAAATFIQHECFQKSEARKRVNQLRGILKLLQLLKVQNEDVQRAVCGALRNLVFEDNDNKLEVAELNGVPRLLQVLKQTRDLETKKQITDHTVNLRSRNGWPGAVAHACNPSTLGGQGGRITRSGVRDQPDQHGLLWNLSSNDKLKNLMITEALLTLTENIIIPFSGWPEGDYPKANGLLDFDIFYNVTGCLRNMSSAGADGRKAMRRCDGLIDSLVHYVRGTIADYQPDDKATENCVCILHNLSYQLEAELPEKYSQNIYIQNRNIQTDNNKSIGCFGSRSRKVKEQYQDVPMPEEKSNPKGVEWLWHSIVIRMYLSLIAKSVRNYTQEASLGALQNLTAGSGPMPTSVAQTVVQKESGLQHTRKMLHVGDPSVKKTAISLLRNLSRNLSLQNEIAKETLPDLVSIIPDTVPSTDLLIETTASACYTLNNIIQNSYQNARDLLNTGGIQKIMAISAGDAYASNKASKAASVLLYSLWAHTELHHAYKKAQFKKTDFVNSRTAKAYHSLKD
partner: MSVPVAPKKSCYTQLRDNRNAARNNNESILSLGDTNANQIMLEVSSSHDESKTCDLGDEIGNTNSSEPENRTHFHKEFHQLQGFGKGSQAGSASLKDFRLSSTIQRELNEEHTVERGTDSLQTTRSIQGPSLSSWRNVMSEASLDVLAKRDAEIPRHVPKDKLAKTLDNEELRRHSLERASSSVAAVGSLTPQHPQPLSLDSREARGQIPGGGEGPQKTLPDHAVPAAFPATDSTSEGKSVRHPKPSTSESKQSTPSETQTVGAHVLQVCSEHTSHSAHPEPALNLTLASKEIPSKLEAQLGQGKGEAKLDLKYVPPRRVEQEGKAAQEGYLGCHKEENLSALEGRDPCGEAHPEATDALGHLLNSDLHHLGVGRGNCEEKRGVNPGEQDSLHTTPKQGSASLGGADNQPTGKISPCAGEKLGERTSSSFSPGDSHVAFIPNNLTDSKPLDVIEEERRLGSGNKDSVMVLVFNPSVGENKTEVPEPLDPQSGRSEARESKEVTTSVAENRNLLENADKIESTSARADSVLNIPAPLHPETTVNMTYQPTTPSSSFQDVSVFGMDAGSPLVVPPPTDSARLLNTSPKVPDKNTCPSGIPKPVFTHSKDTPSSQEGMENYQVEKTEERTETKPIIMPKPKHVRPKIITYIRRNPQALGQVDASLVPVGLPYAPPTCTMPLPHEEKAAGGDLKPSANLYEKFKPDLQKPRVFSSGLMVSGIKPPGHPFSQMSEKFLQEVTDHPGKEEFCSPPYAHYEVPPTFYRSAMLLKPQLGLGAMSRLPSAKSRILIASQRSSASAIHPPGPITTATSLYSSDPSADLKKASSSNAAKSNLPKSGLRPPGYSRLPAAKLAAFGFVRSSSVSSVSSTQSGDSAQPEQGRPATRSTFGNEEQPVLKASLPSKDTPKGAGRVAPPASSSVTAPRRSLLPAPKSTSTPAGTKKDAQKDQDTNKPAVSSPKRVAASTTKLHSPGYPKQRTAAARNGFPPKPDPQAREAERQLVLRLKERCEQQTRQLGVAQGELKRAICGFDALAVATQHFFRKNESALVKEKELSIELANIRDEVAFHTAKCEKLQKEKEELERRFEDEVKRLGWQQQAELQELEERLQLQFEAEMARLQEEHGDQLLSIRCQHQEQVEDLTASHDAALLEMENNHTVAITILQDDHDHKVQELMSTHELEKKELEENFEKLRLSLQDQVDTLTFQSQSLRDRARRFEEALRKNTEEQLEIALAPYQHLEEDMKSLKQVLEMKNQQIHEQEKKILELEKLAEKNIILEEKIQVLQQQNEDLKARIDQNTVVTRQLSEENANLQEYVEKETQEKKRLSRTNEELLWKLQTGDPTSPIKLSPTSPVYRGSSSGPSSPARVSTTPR
B4: Plakophilin-2 (Homo sapiens), Q99959 (parent)
chain: B3 chain
partner: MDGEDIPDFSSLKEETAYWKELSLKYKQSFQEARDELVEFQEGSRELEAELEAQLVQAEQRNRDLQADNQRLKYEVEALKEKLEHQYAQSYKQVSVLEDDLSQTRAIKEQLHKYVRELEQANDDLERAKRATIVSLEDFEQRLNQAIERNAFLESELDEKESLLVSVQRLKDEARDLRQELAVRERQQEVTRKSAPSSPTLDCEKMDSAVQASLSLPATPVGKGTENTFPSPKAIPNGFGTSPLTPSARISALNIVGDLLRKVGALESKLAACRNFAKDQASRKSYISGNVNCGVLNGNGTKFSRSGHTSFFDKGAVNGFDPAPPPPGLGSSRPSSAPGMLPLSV
B5: TERF1-interacting nuclear factor 2 (Homo sapiens), Q9BSI4 (parent)
chain: MATPLVAGPAALRFAAAASWQVVRGRCVEHFPRVLEFLRSLRAVAPGLVRYRHHERLCMGLKAKVVVELILQGRPWAQVLKALNHHFPESGPIVRDPKATKQDLRKILEAQETFYQQVKQLSEAPVDLASKLQELEQEYGEPFLAAMEKLLFEYLCQLEKALPTPQAQQLQDVLSWMQPGVSITSSLAWRQYGVDMGWLLPECSVTDSVNLAEPMEQNPPQQQRLALHNPLPKAKPGTHLPQGPSSRTHPEPLAGRHFNLAPLGRRRVQSQWASTRGGHKERPTVMLFPFRNLGSPTQVISKPESKEEHAIYTADLAMGTRAASTGKSKSPCQTLGGRALKENPVDLPATEQKENCLDCYMDPLRLSLLPPRARKPVCPPSLCSSVITIGDLVLDSDEEENGQGEGKESLENYQKTKFDTLIPTLCEYLPPSGHGAIPVSSCDCRDSSRPL
B6: Forkhead box protein P3 (Homo sapiens), Q9BZS1 (parent)
chain: MPNPRPGKPSAPSLALGPSPGASPSWRAAPKASDLLGARGPGGTFQGRDLRGGAHASSSSLNPMPPSQLQLPTLPLVMVAPSGARLGPLPHLQALLQDRPHFMHQLSTVDAHARTPVLQVHPLESPAMISLTPPTTATGVFSLKARPGLPPGINVASLEWVSREPALLCTFPNPSAPRKDSTLSAVPQSSYPLLANGVCKWPGCEKVFEEPEDFLKHCQADHLLDEKGRAQCLLQREMVQSLEQQLVLEKEKLSAMQAHLAGKMALTKASSVASSDKGSCCIVAAGSQGPVVPAWSGPREAPDSLFAVRRHLWGSHGNSTFPEFLHNMDYFKFHNMRPPFTYATLIRWAILEAPEKQRTLNEIYHWFTRMFAFFRNHPATWKNAIRHNLSLHKCFVRVESEKGAVWTVDELEFRKKRSQRPSRCSNPTPGP

Variants of: B1
Details: with hgs_human HGS

Variant | effect of a mutation on the interaction
G112S | disrupting interaction

Variants of: B1
Details: with stam2_human STAM2, O75886

Variant | effect of a mutation on the interaction
G112S | disrupting interaction

Variants of: B1
Details: with reep6_human REEP6, Q96HR9
reep6_human REEP6, Q96HR9, sequence (Q96HR9 whole entry): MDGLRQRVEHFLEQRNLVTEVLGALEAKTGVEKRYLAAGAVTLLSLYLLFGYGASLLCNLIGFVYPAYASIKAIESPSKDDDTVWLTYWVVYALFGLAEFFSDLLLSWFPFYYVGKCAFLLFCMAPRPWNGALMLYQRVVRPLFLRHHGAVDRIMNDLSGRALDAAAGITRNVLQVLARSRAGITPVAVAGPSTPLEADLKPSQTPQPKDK

Variant | effect of a mutation on the interaction
G112S | disrupting interaction

Variants of: B1
Details: with UBQLN1, Q9UMX0-2
UBQLN1, Q9UMX0-2, sequence (Q9UMX0 other isoform, or with tags, fused parts or gaps): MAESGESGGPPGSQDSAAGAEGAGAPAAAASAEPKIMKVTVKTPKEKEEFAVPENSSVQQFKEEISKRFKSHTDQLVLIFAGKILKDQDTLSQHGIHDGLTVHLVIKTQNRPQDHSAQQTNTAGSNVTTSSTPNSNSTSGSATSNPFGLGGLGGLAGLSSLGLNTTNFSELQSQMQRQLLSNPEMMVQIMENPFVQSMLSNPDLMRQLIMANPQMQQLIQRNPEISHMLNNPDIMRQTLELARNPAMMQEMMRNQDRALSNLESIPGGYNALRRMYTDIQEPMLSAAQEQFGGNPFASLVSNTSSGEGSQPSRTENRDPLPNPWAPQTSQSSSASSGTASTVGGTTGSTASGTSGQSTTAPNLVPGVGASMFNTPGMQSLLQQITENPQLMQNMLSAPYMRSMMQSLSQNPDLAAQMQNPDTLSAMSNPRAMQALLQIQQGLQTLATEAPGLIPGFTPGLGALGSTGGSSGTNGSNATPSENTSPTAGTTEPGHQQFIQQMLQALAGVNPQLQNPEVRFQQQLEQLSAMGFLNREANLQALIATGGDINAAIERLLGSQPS

Variant | effect of a mutation on the interaction
G112S | disrupting interaction

Variants of: B1
Details: with ubql1_human UBQLN1, Q9UMX0
ubql1_human UBQLN1, Q9UMX0, sequence (Q9UMX0 whole entry): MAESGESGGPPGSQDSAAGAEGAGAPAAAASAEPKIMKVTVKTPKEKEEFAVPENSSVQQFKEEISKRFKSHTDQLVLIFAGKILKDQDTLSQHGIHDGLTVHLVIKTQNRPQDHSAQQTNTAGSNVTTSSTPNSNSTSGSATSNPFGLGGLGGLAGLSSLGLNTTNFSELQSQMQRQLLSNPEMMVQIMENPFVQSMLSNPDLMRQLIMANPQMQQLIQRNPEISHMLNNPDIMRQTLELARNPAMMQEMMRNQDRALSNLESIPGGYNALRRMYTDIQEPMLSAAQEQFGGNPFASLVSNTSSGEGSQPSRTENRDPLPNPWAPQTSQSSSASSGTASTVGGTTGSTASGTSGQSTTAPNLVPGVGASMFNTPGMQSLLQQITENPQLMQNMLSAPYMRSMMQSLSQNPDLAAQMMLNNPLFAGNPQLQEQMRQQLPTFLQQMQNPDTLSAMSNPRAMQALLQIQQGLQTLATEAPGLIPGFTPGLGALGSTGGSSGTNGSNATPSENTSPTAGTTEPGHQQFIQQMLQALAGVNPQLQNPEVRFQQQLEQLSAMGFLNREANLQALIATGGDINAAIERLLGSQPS

Variant | effect of a mutation on the interaction
G112S | disrupting interaction

Variants of: B2
Details: with caco2_human CALCOCO2, Q13137

Variant | effect of a mutation on the interaction
A111G | disrupting interaction

Variants of: B2
Details: with caco2_human CALCOCO2, Q13137
Remark: another data set of the same source

Variant | effect of a mutation on the interaction
G112S | disrupting interaction

Variants of: B3
Details: with mtus2_human MTUS2, Q5JR59

Variant | effect of a mutation on the interaction
S140F | disrupting interaction

Variants of: B3
Details: with mtus2_human MTUS2, Q5JR59
Remark: another data set of the same source

Variant | effect of a mutation on the interaction
S644P | disrupting interaction

Variants of: B4
Details: with ndel1_human NDEL1, Q9GZM8

Variant | effect of a mutation on the interaction
S140F | disrupting interaction

Variants of: B4
Details: with ndel1_human NDEL1, Q9GZM8
Remark: another data set of the same source

Variant | effect of a mutation on the interaction
S644P | disrupting interaction

Variants of: B5
Details: with acd_human ACD

Variant | effect of a mutation on the interaction
P236S | disrupting interaction

Variants of: B6
Details: with pr20c_human PRR20C

Variant | effect of a mutation on the interaction
I363V | disrupting interaction

Variants of: B6
Details: with rbpms_human RBPMS

Variant | effect of a mutation on the interaction
I363V | disrupting interaction

Variants of: B6
Details: with pr20c_human PRR20C
Remark: another data set of the same source

Variant | effect of a mutation on the interaction
Q70H | disrupting interaction

Variants of: B6
Details: with rbpms_human RBPMS
Remark: another data set of the same source

Variant | effect of a mutation on the interaction
Q70H | disrupting interaction
